The Km is the substrate concentration at which the rate is half of its maximum.

Several values for one entry are separate records, joined by “and”; a condition that tells them apart may be missing. Equal values may be shown once. Entries after “also recorded” stand apart in the source; their conditions may differ.

From patent publication US6261814A, “Carboxylic acid reductase, and methods of using same” (University of Iowa Research Foundation, priority 1998, dated 2001) come the findings set out here.

Data set [1] has as its target T1, carboxylic acid reductase (Nocardia iowensis, UniProt Q6RKB1).
T1 construct: isolated and substantially purified from Nocardia sp. strain NRRL 5646; endogenous in cells; host or cells: Nocardia sp; NRRL 5646, benzoate-induced culture; enzyme purified by Mono-Q, Reactive Green 19 agarose and hydroxyapatite chromatography
Put plainly: Enzymatic reduction of vanillic acid to vanillin by purified carboxylic acid reductase. The class given is biochemical, Nocardia sp. NRRL 5646. How it is done: The reaction mixture was incubated at 30° C. with gentle shaking for 24 hours, after which the entire reaction mixture was loaded onto a solid phase extraction cartridge (Chem Elut 1200, 200 ml aqueous solution capacity). After 5 min. of equilibration, the cartridge was washed with 2×100 ml of hexane, then washed again with 2×100 ml of dichloromethane (concentrated to less than 2 ml).
The extract was then transferred to a vial and the solvent was removed with a stream of nitrogen to give about 8 mg of the purified vanillin end product.
Mass spectrometry, ^1 H, and ^13 C NMR data confirmed that this compound was vanillin. The yield was determined to be 96% with UV spectrophotometric assay at 340 nm.

For data set [2], the target named is T1, carboxylic acid reductase. Put plainly: Rate of carboxylic acid reduction after o-benzylation of vanillic acid (unpublished data). The class given is biochemical, Nocardia sp. NRRL 5646. As to conditions: substrate concentration 5 mM.
The target of data set [3] is T1, carboxylic acid reductase. Kind of data set: 13C NMR study of benzoyl-AMP reduction by purified carboxylic acid reductase. The class given is biochemical, Nocardia sp. NRRL 5646. The following applies: 1.4 mM benzoyl-AMP, 2.0 mM NADPH, 20 min. at 20° C. The procedure:
Using carboxyl-^13 C labeled benzoyl-AMP, synthesized as described in Example 1, the reduction of benzoyl-AMP to benzaldehyde with the substantially purified carboxylic acid reductase from Nocardia sp. NRRL 5646 was investigated with ^13 C NMR spectroscopy (see, FIG. 1). The substantially purified carboxylic acid reductase from Nocardia sp. NRRL 5646 and all other reagents were prepared or obtained in Example 1.
A 10 μl sample (0.05 units) of the substantially purified carboxylic acid reductase was added to initiate the reaction. A control sample was prepared containing everything except the enzyme. After 20 min. incubation at 20° C., the samples were subjected to NMR analysis. For ^13 C NMR spectroscopy, […] D2 O was added as the locking solvent, and […] of dioxane was added as an internal standard (67.4 ppm). NMR spectra were obtained with a Bruker WM 360-MHZ high-field spectrometer equipped with an IBM Aspect-2000 processor.

Data set [4] has as its system CC(C)Cc1ccc([C@@H](C)C(=O)O)cc1. Put plainly: purified protein, by the assay type. The following applies: other: purified enzyme; mean of three determinations; pH 7.5; 25.0 °C.
Data set [5] has as its system CC(C)Cc1ccc([C@H](C)C(=O)O)cc1. Put plainly: purified protein, by the assay type. The following applies: other: purified enzyme; mean of three determinations; pH 7.5; 25.0 °C.
Data set [6] relates to NC(=O)C1=CN([C@@H]2O[C@H](COP(=O)(O)OP(=O)(O)OC[C@H]3O[C@@H](n4cnc5c(N)ncnc54)[C@H](OP(=O)(O)O)[C@@H]3O)[C@@H](O)[C@H]2O)C=CC1. Kind of data set: purified protein, by the assay type. As to conditions: other: purified enzyme; mean of three determinations; pH 7.5; 25.0 °C.
The subject of data set [7] is Nc1ncnc2c1ncn2[C@@H]1O[C@H](COP(=O)(O)OP(=O)(O)OP(=O)(O)O)[C@@H](O)[C@H]1O. Put plainly: purified protein, by the assay type. As to conditions: other: purified enzyme; mean of three determinations; pH 7.5; 25.0 °C.
A short description of data set [8]: Stability of the purified enzyme in buffer. As to conditions: 50 mM pH 7.5 Tris-HCl buffer, 10% glycerol, 8 hr at 4° C. The class given is physicochemical. How it is done:
Properties of the carboxylic acid reductase (aryl-aldehyde oxidoreductase).Inclusion of 10% glycerol in all chromatographic buffers was used to stabilize the enzyme. Nevertheless, the purified enzyme in 50 mM pH 7.5 Tris-HCl buffer, containing 10% glycerol, lost nearly […] of its activity in 8 hr at 4° C.

The target of data set [9] is carboxylic acid reductase (aryl aldehyde oxidoreductase) (Nocardia iowensis, UniProt Q6RKB1). Kind of data set: Standard aryl-aldehyde oxidoreductase assay: specific activity of the purified enzyme. The class given is biochemical, Nocardia sp. NRRL 5646. More on the design: isolated and substantially purified from Nocardia sp. strain NRRL 5646; endogenous in cells; host or cells: Nocardia sp; NRRL 5646, benzoate-induced culture; enzyme purified by Mono-Q, Reactive Green 19 agarose and hydroxyapatite chromatography. The following applies: after hydroxyapatite step. The procedure:
Enzyme assay. The standard aryl-aldehyde oxidoreductase assay solution contained 0.15 mM […], 1 mM ATP, and 5 mM sodium benzoate, 10 mM MgCl2 and 0.01 to 0.3 units of enzyme in 50 mM Tris-HCl buffer in a final volume of 0.7 ml. The reference cuvette contained all components except for benzoate. Enzyme reactions were initiated by adding enzyme, and they were monitored by recording the absorption decrease at 340 nm at 25° C. with a Shimadzu 160 spectrophotometer. One unit of the carboxylic acid reductase (aryl-aldehyde oxidoreductase) is defined as the amount of enzyme that catalyzes the reduction of 1 μmol benzoate to benzaldehyde per min. under standard assay conditions.
Protein assay. The concentration of protein was measured by the Bradford protein microassay (Bradford, Anal. Biochem. 72:248-254 (1976)), with bovine serum albumin as the standard.

T1 sequence (Q6RKB1 whole entry): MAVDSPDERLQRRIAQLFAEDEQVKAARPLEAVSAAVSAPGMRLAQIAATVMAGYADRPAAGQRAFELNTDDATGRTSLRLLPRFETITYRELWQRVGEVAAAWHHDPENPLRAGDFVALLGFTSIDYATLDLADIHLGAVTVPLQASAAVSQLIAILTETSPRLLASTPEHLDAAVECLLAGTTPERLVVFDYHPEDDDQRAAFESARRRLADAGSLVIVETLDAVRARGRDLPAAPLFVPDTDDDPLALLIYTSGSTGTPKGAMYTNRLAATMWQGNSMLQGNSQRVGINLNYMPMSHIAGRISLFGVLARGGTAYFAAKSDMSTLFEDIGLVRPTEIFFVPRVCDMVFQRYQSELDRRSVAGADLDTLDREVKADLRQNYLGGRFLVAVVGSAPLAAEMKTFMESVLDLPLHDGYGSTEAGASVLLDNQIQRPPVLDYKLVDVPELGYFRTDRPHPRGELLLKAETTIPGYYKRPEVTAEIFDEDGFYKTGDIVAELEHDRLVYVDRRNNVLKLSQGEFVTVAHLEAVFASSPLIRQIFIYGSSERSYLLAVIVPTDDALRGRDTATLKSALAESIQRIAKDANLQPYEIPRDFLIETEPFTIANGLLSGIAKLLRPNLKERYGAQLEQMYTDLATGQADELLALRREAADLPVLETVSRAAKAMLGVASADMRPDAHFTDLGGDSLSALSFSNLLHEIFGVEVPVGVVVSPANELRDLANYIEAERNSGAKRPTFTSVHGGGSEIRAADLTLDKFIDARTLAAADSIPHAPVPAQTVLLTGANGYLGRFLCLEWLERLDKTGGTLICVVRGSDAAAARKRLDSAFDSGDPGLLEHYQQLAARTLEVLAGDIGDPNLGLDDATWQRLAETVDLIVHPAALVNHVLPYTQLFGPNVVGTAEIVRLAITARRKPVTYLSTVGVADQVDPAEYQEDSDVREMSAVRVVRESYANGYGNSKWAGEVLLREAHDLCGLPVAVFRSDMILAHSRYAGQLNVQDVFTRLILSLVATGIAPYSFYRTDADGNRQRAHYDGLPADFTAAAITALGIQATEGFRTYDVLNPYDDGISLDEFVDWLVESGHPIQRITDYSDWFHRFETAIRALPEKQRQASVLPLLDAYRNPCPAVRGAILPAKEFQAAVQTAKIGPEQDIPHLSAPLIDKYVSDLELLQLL
Sequence of carboxylic acid reductase (aryl aldehyde oxidoreductase) (Q6RKB1 whole entry): as above

With `COc1cc(C(=O)O)ccc1O` [vanillic acid, 4-hydroxy-3-methoxybenzoic acid], in [1] (with ATP and NADPH, purified enzyme), the “transformation from vanillic acid to vanillin” value is recorded as “quantitative”. The “increase in the rate of carboxylic acid reduction as a result of o-benzylation” value in [2] was “more than 15 fold”.
For the molecule `Nc1ncnc2c1ncn2[C@@H]1O[C@H](COP(=O)(O)OC(=O)c2ccccc2)[C@@H](O)[C@H]1O` [benzoyl AMP], the “reduction of benzoyl-AMP to benzaldehyde” value in data set [3] was “completely reduced; also recorded: quantitatively reduced”.
Take “carboxylic acid reductase (aryl-aldehyde oxidoreductase) (Nocardia iowensis)”: the Km was 34.5 µM in data set [4]; 155 µM in data set [5]; 29.3 µM and 57.3 ± 12.5 µM in data set [6]; 57.3 µM and 29.3 ± 3.1 µM in data set [7].
The molecule `COc1cc(C=O)ccc1O` [vanillin, 4-hydroxy-3-methoxy-benzaldehyde] registered a yield of vanillin in [1] (UV spectrophotometric assay at 340 nm, 30° C., 24 hours) of 96%.

B1: Purified carboxylic acid reductase: carboxylic acid reductase (aryl-aldehyde oxidoreductase) isolated and purified from Nocardia sp. strain NRRL 5646 (protein, UniProt Q6RKB1 2-1174, looked up)
Carboxylic acid reductase: AVDSPDERLQRRIAQLFAEDEQVKAARPLEAVSAAVSAPGMRLAQIAATVMAGYADRPAAGQRAFELNTDDATGRTSLRLLPRFETITYRELWQRVGEVAAAWHHDPENPLRAGDFVALLGFTSIDYATLDLADIHLGAVTVPLQASAAVSQLIAILTETSPRLLASTPEHLDAAVECLLAGTTPERLVVFDYHPEDDDQRAAFESARRRLADAGSLVIVETLDAVRARGRDLPAAPLFVPDTDDDPLALLIYTSGSTGTPKGAMYTNRLAATMWQGNSMLQGNSQRVGINLNYMPMSHIAGRISLFGVLARGGTAYFAAKSDMSTLFEDIGLVRPTEIFFVPRVCDMVFQRYQSELDRRSVAGADLDTLDREVKADLRQNYLGGRFLVAVVGSAPLAAEMKTFMESVLDLPLHDGYGSTEAGASVLLDNQIQRPPVLDYKLVDVPELGYFRTDRPHPRGELLLKAETTIPGYYKRPEVTAEIFDEDGFYKTGDIVAELEHDRLVYVDRRNNVLKLSQGEFVTVAHLEAVFASSPLIRQIFIYGSSERSYLLAVIVPTDDALRGRDTATLKSALAESIQRIAKDANLQPYEIPRDFLIETEPFTIANGLLSGIAKLLRPNLKERYGAQLEQMYTDLATGQADELLALRREAADLPVLETVSRAAKAMLGVASADMRPDAHFTDLGGDSLSALSFSNLLHEIFGVEVPVGVVVSPANELRDLANYIEAERNSGAKRPTFTSVHGGGSEIRAADLTLDKFIDARTLAAADSIPHAPVPAQTVLLTGANGYLGRFLCLEWLERLDKTGGTLICVVRGSDAAAARKRLDSAFDSGDPGLLEHYQQLAARTLEVLAGDIGDPNLGLDDATWQRLAETVDLIVHPAALVNHVLPYTQLFGPNVVGTAEIVRLAITARRKPVTYLSTVGVADQVDPAEYQEDSDVREMSAVRVVRESYANGYGNSKWAGEVLLREAHDLCGLPVAVFRSDMILAHSRYAGQLNVQDVFTRLILSLVATGIAPYSFYRTDADGNRQRAHYDGLPADFTAAAITALGIQATEGFRTYDVLNPYDDGISLDEFVDWLVESGHPIQRITDYSDWFHRFETAIRALPEKQRQASVLPLLDAYRNPCPAVRGAILPAKEFQAAVQTAKIGPEQDIPHLSAPLIDKYVSDLELLQLL
For the molecule B1, in data set [8], the loss of activity is around 250%. In data set [9], the specific activity is 5.9 units/mg of protein.
